Publication PMC11358414

Molecular target: DEP-Venus (DEP domain of Disheveled, DVL) (UniProt O14641)
Experiment: NanoBiT-based DEP recruitment BRET assay (BRET titration)
Details: HEK293A cells, FLAG-LgBiT-CAAX cotransfected, baseline-corrected …, parent: est. 0.38, read off a plot

| Substance | response (value read at the right end of the fitted curve (Venus fluorescence about 27000 arb. units)) [net BRET] | response (value read at the right end of the fitted curve (Venus fluorescence about 23000 arb. units)) [net BRET] |
| --- | --- | --- |
| FZD7-SmBiT, wild type (from UniProt O75084) F345A; H382A | 0.08 |  |
| FZD7-SmBiT, wild type (from UniProt O75084) F345A; W386A |  | 0.1 |
